± gives the uncertainty stated by the source.

B1: Pyruvate dehydrogenase protein X component, mitochondrial, residues 181 to 227; numbered along this chain, O00330 (parent)
chain: RFRLSPAARNILEKHSLDASQGTATGPRGIFTKEDALKLVQLKQTGK
B2: Chromodomain-helicase-DNA-binding protein 5, residues 411 to 463; numbered along this chain, Q8TDI0 (parent)
chain: EEDDHMEFCRVCKDGGELLCCDACPSSYHLHCLNPPLPEIPNGEWLCPRCTCP

The variants in one data set derive from B1. The experiment in a line: abundance fitness (aPCA) (normalised: wild type 0, dead -1); higher = more abundant; growth selection in yeast, the domain comes from the species named. Conditions: Homo sapiens.
Turning to RFRLSPAARNILEKHSLDASQGTATGPRGIFTKEDALKLVQLKQTTK, the abundance fitness is -0.037 ± 0.059.
The same measure, in the same setting: next, RFRLSPAARNILEKHSLDASQGTATGPRGIFTKEDALKLVQLKQTRK: -0.105 ± 0.05; RFRLSPAARNILEKHSLDASQGTATGPRGIFTKEDALKLVQLKQTAK: -0.323 ± 0.095.
Regarding RFRLSPAARNILEKHSLDASQGTATGPRGIFTKEDALKLVQLKQTQK, the abundance fitness stood at 0.249 ± 0.14.
With RFRLSPAARNILEKHSLDASQGTATGPRGIFTKEDALKLVQLKQTVK, the abundance fitness was -0.207 ± 0.069.
Turning to RFRLSPAARNILEKHSLDASQGTATGPRGIFTKEDALKLVQLKQTYK, the abundance fitness was found to be 0.219 ± 0.18.
In the case of RFRLSPAARNILEKHSLDASQGTATGPRGIFTKEDALKLVQLKQTHK, the abundance fitness was 0.38 ± 0.14.
As for RFRLSPAARNILEKHSLDASQGTATGPRGIFTKEDALKLVQLKQTFK, the abundance fitness was -0.464 ± 0.31.
Still for that read-out and setting: next, RFRLSPAARNILEKHSLDASQGTATGPRGIFTKEDALKLVQLKQTSK: -0.05 ± 0.06; RFRLSPAARNILEKHSLDASQGTATGPRGIFTKEDALKLVQLKQTDK: -0.343 ± 0.15.
For RFRLSPAARNILEKHSLDASQGTATGPRGIFTKEDALKLVQLKQTEK, the abundance fitness turned out to be 0.122 ± 0.12.
For the variant RFRLSPAARNILEKHSLDASQGTATGPRGIFTKEDALKLVQLKQTKK, the abundance fitness was -0.375 ± 0.13.
In the case of RFRLSPAARNILEKHSLDASQGTATGPRGIFTKEDALKLVQLKQTCK, the abundance fitness is 0.022 ± 0.093.
The same measure, in the same setting: next, RFRLSPAARNILEKHSLDASQGTATGPRGIFTKEDALKLVQLKQTLK: -0.268 ± 0.071; RFRLSPAARNILEKHSLDASQGTATGPRGIFTKEDALKLVQLKQTPK: -0.469 ± 0.13; RFRLSPAARNILEKHSLDASQGTATGPRGIFTKEDALKLVQLKQTMK: -0.042 ± 0.12.
Same read-out and setting: next, RFRLSPAARNILEKHSLDASQGTATGPRGIFTKEDALKLVQLKQTIK: -0.689 ± 0.2.
For the variant RFRLSPAARNILEKHSLDASQGTATGPRGIFTKEDALKLVQLKQTWK, the abundance fitness was -0.553 ± 0.17.
The same measure, in the same setting: as for RFRLSPAARNILEKHSLDASQGTATGPRGIFTKEDALKLVQLKHTGK, the figure is -0.152 ± 0.095; as for RFRLSPAARNILEKHSLDASQGTATGPRGIFTKEDALKLVQLKPTGK, -0.516 ± 0.093; as for RFRLSPAARNILEKHSLDASQGTATGPRGIFTKEDALKLVQLKMTGK, -0.389 ± 0.12.
Consider RFRLSPAARNILEKHSLDASQGTATGPRGIFTKEDALKLVQLKSTGK, for which the abundance fitness was -0.068 ± 0.082.
Still for that read-out and setting: next, RFRLSPAARNILEKHSLDASQGTATGPRGIFTKEDALKLVQLKNTGK: -0.337 ± 0.14; RFRLSPAARNILEKHSLDASQGTATGPRGIFTKEDALKLVQLKVTGK: -0.133 ± 0.044; RFRLSPAARNILEKHSLDASQGTATGPRGIFTKEDALKLVQLKITGK: 0.039 ± 0.093.
Still for that read-out and setting: as for RFRLSPAARNILEKHSLDASQGTATGPRGIFTKEDALKLVQLKKTGK, the figure is 0.114 ± 0.094; as for RFRLSPAARNILEKHSLDASQGTATGPRGIFTKEDALKLVQLKETGK, 0.038 ± 0.076.
Regarding RFRLSPAARNILEKHSLDASQGTATGPRGIFTKEDALKLVQLKYTGK, the abundance fitness is -0.028 ± 0.11.
The same measure, in the same setting: next, RFRLSPAARNILEKHSLDASQGTATGPRGIFTKEDALKLVQLKWTGK: -0.641 ± 0.14; RFRLSPAARNILEKHSLDASQGTATGPRGIFTKEDALKLVQLKRTGK: -0.14 ± 0.061.
In the case of RFRLSPAARNILEKHSLDASQGTATGPRGIFTKEDALKLVQLKATGK, the abundance fitness was -0.008 ± 0.045.
RFRLSPAARNILEKHSLDASQGTATGPRGIFTKEDALKLVQLKDTGK: the abundance fitness is -0.262 ± 0.12.
For the variant RFRLSPAARNILEKHSLDASQGTATGPRGIFTKEDALKLVQLKFTGK, the abundance fitness is -0.328 ± 0.049.
With RFRLSPAARNILEKHSLDASQGTATGPRGIFTKEDALKLVQLKLTGK, the abundance fitness is -0.131 ± 0.053.
Same read-out and setting: next, RFRLSPAARNILEKHSLDASQGTATGPRGIFTKEDALKLVQLKTTGK: -0.451 ± 0.13.
Regarding RFRLSPAARNILEKHSLDASQGTATGPRGIFTKEDALKLVQLKQTGQ, the abundance fitness is 0.539 ± 0.26.
As for RFRLSPAARNILEKHSLDASQGTATGPRGIFTKEDALKLVQLKQTGD, the abundance fitness was -0.532 ± 0.43.
On the same count and under the same terms, next, RFRLSPAARNILEKHSLDASQGTATGPRGIFTKEDALKLVQLKQTGY: 0.095 ± 0.15; RFRLSPAARNILEKHSLDASQGTATGPRGIFTKEDALKLVQLKQTGH: -0.156 ± 0.48; RFRLSPAARNILEKHSLDASQGTATGPRGIFTKEDALKLVQLKQTGR: -0.293 ± 0.35.
Consider RFRLSPAARNILEKHSLDASQGTATGPRGIFTKEDALKLVQLKQTGE, for which the abundance fitness came to 0.284 ± 0.2.
Same read-out and setting: next, RFRLSPAARNILEKHSLDASQGTATGPRGIFTKEDALKLVQLKQTGC: -0.003 ± 0.25; RFRLSPAARNILEKHSLDASQGTATGPRGIFTKEDALKLVQLKQTGT: -0.774 ± 0.48.
As for RFRLSPAARNILEKHSLDASQGTATGPRGIFTKEDALKLVQLKQTGN, the abundance fitness was -0.751 ± 0.36.
In the case of RFRLSPAARNILEKHSLDASQGTATGPRGIFTKEDALKLVQLKQTGM, the abundance fitness amounted to 0.312 ± 0.15.
Still for that read-out and setting: next, RFRLSPAARNILEKHSLDASQGTATGPRGIFTKEDALKLVQLKQIGK: -0.428 ± 0.15.
On the same count and under the same terms, as for RFRLSPAARNILEKHSLDASQGTATGPRGIFTKEDALKLVQLKQDGK, the figure is 0.07 ± 0.11; as for RFRLSPAARNILEKHSLDASQGTATGPRGIFTKEDALKLVQLKQCGK, -0.217 ± 0.085; as for RFRLSPAARNILEKHSLDASQGTATGPRGIFTKEDALKLVQLKQLGK, -0.146 ± 0.09.
On the same count and under the same terms, as for RFRLSPAARNILEKHSLDASQGTATGPRGIFTKEDALKLVQLKQQGK, the figure is -0.209 ± 0.14; as for RFRLSPAARNILEKHSLDASQGTATGPRGIFTKEDALKLVQLKQNGK, 0.096 ± 0.12; as for RFRLSPAARNILEKHSLDASQGTATGPRGIFTKEDALKLVQLKQSGK, 0.167 ± 0.052.
On to RFRLSPAARNILEKHSLDASQGTATGPRGIFTKEDALKLVQLKQKGK, for which the abundance fitness is -0.379 ± 0.11.
Take RFRLSPAARNILEKHSLDASQGTATGPRGIFTKEDALKLVQLKQHGK: the abundance fitness was -0.189 ± 0.13.
On to RFRLSPAARNILEKHSLDASQGTATGPRGIFTKEDALKLVQLKQGGK, for which the abundance fitness amounted to 0.166 ± 0.057.
Consider RFRLSPAARNILEKHSLDASQGTATGPRGIFTKEDALKLVQLKQMGK, for which the abundance fitness is -0.211 ± 0.088.
Regarding RFRLSPAARNILEKHSLDASQGTATGPRGIFTKEDALKLVQLKQPGK, the abundance fitness is -0.333 ± 0.11.
On to RFRLSPAARNILEKHSLDASQGTATGPRGIFTKEDALKLVQLKQFGK, for which the abundance fitness is -0.147 ± 0.25.
Consider RFRLSPAARNILEKHSLDASQGTATGPRGIFTKEDALKLVQLKQVGK, for which the abundance fitness was -0.156 ± 0.053.
Same read-out and setting: next, RFRLSPAARNILEKHSLDASQGTATGPRGIFTKEDALKLVQLKQRGK: -0.023 ± 0.058; RFRLSPAARNILEKHSLDASQGTATGPRGIFTKEDALKLVQLKQWGK: -0.276 ± 0.075.

The variants in a further data set derive from B2. Described as above. Conditions: Homo sapiens.
As for E1R, the abundance fitness was -0.554 ± 0.16.
On the same count and under the same terms, as for E1D, the figure is -0.455 ± 0.085; as for E1G, -0.304 ± 0.044.
Still for that read-out and setting: next, E1P: -0.803 ± 0.27; E1C: -0.893 ± 0.47.
For E1I, the abundance fitness is 0.425 ± 0.27.
E1A: the abundance fitness was -0.518 ± 0.1.
Regarding E1K, the abundance fitness was 0.044 ± 0.13.
Consider E1N, for which the abundance fitness is 0.264 ± 0.15.
On the same count and under the same terms, as for D3Y, the figure is 0.189 ± 0.065; as for D3V, 0.114 ± 0.054; as for D3A, 0.028 ± 0.06.
Still for that read-out and setting: next, D3N: 0.168 ± 0.069; D3I: 0.36 ± 0.07.
For D3S, the abundance fitness was 0.155 ± 0.044.
Same read-out and setting: next, D3E: 0.136 ± 0.082; D3C: -0.763 ± 0.065; D3R: 0.14 ± 0.04.
As for D3Q, the abundance fitness stood at 0.105 ± 0.047.
In the case of D3H, the abundance fitness was -0.015 ± 0.046.
The same measure, in the same setting: as for D3F, the figure is 0.357 ± 0.045.
Still for that read-out and setting: as for D3G, the figure is 0.105 ± 0.045; as for D3T, 0.205 ± 0.05; as for D4C, 0.203 ± 0.066.
On the same count and under the same terms, next, D4P: 0.024 ± 0.041; D4M: 0.156 ± 0.043.
Turning to D4T, the abundance fitness came out at 0.216 ± 0.043.
Same read-out and setting: as for D4F, the figure is 0.263 ± 0.047; as for D4L, 0.11 ± 0.042; as for D4R, 0.048 ± 0.041.
For the variant D4Y, the abundance fitness stood at 0.252 ± 0.077.
Take D4G: the abundance fitness was -0.425 ± 0.045.
With D4I, the abundance fitness is 0.184 ± 0.063.
As to D4S, the abundance fitness was -0.081 ± 0.041.
The same measure, in the same setting: as for D4N, the figure is 0.288 ± 0.043; as for D4H, 0.17 ± 0.044; as for D4W, 0.005 ± 0.047.
Same read-out and setting: as for D4K, the figure is 0.184 ± 0.047; as for D4V, -0.14 ± 0.042; as for D4E, -0.131 ± 0.043.
For D4A, the abundance fitness was -0.186 ± 0.041.
On the same count and under the same terms, next, R10C: -0.296 ± 0.087; R10A: -0.219 ± 0.075.

The record behind these values is the Human Domainome abundance scans (Beltran et al. 2025).
